Assay [1] deals with T1, IL17A (analyte of Table 17) (Homo sapiens (Human), UniProt Q16552 24-155).
T1 sequence: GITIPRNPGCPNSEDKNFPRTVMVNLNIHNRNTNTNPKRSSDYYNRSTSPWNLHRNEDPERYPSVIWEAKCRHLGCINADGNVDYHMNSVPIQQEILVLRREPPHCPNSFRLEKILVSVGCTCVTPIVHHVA
Nature of the assay: SPR Biacore 8K, antibody captured on anti-human chip, antigen as analyte, 1:1 model. (In general: Surface plasmon resonance follows binding to a sensor surface in real time, without labels.)

The target in assay [2] is T2, IL36R (analyte of Table 17) (Homo sapiens (Human), UniProt Q9HB29 20-335).
T2 sequence: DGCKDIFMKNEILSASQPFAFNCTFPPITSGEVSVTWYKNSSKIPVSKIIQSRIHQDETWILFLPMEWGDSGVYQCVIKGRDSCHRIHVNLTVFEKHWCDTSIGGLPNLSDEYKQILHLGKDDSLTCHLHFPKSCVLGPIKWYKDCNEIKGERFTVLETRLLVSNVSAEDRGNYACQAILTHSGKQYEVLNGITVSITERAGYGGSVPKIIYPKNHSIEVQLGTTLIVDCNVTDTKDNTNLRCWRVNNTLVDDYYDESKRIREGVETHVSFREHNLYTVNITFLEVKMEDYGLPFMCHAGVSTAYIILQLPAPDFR
The description is as above.

Assay [3] has as its target T3, human IL-36R (human, UniProt Q9HB29 20-575).
T3 sequence (looked up): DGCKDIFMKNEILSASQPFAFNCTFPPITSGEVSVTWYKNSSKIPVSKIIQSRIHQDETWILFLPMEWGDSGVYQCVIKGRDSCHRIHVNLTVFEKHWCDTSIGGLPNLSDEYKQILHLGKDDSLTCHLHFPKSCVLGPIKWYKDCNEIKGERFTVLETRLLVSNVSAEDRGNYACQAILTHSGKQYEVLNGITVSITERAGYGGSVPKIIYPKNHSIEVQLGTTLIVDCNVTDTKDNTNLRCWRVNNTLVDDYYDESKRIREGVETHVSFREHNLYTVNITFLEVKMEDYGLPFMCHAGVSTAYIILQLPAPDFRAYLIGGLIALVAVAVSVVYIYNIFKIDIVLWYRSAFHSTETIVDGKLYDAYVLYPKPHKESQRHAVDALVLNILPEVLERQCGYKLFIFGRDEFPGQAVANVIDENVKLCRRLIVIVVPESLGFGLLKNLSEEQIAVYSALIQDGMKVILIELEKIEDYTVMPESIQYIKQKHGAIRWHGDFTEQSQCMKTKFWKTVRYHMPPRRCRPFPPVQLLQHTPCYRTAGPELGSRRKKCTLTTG
Nature of the assay: cell-based or functional assay.

The target in assay [4] is T3, human IL-36R. Nature of the assay: flow cytometry on CHO-K1-huIL-36R-5E10/2F10 cells.
The target in assay [5] is T4, Human IL-17A (human, UniProt Q16552 24-155).
T4 construct: also called IL-17A recombinant protein; IL-17A soluble recombinant protein
T4 sequence (looked up): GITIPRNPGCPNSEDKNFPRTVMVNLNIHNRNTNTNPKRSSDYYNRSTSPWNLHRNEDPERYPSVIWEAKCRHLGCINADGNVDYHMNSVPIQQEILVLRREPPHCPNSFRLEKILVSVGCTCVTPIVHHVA
Nature of the assay: ELISA, human IL-17A coated at 1 µg/ml. (In an ELISA, binding on a coated surface is turned into a signal by an enzyme label.)

Assay [6] deals with T3, human IL-36R. Nature of the assay: flow cytometry on CHO-K1 cells expressing human IL-36R. Background: In flow cytometry, cells or beads pass a laser one at a time.
In assay [7] the target is T5, monkey IL-36R (monkey).
T5 construct: whole, on cells
Nature of the assay: flow cytometry on CHO-K1 cells expressing monkey IL-36R.

Assay [8] addresses T3, human IL-36R. Nature of the assay: cell-based or functional assay. The source holds these as a separate data set.
Assay [9] has as its target T3, human IL-36R. Nature of the assay: cell-based or functional assay. The source holds these as a separate data set.
Assay [10] deals with T6, His-tagged human IL-1 Rrp2/IL-1R6 protein (human, UniProt Q9HB29 20-335, limits assumed).
T6 construct: Bought protein; also called His-tagged human IL-1 Rrp2/IL-IR6 protein; not shown: His tag
T6 sequence (looked up): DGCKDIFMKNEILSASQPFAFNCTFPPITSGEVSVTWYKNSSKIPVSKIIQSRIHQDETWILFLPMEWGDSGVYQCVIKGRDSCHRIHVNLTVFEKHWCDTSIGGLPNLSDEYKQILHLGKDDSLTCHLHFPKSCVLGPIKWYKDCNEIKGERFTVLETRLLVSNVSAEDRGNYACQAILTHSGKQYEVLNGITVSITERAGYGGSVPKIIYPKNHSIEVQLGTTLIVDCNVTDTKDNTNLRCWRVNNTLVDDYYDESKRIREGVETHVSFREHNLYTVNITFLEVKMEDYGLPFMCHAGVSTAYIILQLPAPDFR
Nature of the assay: SPR Biacore 8K, His-tagged antigen captured by anti-His antibody, antibody as analyte, 1:1 model.

The target in assay [11] is T3, human IL-36R. Nature of the assay: cell-based or functional assay. The source holds these as a separate data set.
The target of assay [12] is T3, human IL-36R. Nature of the assay: cell-based or functional assay. The source holds these as a separate data set.
Assay [13] addresses T3, human IL-36R. Nature of the assay: cell-based or functional assay. This is another data set of the same source.

B1: IL17A-IL36R bispecific antibody 700005 (bispecific antibody)
heavy (part 1 of 2): QVQLVQSGSELKKPGASVKVSCKASEYIFTNYGMNWVKQAPGQGFEWMGWIDTNTGEPTYAQGFTGRFVFSLDTSVSTAYLQISSLKAEDTATYYCANYGWGYFDYWGQGTTVTVSS
heavy (part 2 of 2): GGGGSGGGGSGGGGSGGGGSQIVLTQSPGTLSLSPGERATLSCRASSSVSSSYLHWYQQKPGQAPRLWIYSTSSRATGIPDRFSGSGSGTDFTLTISRLEPEDFATYYCQQFQSSPLTFGQGTKLEIKGGGGSGGGGSGGGGSQVQLVQSGAEVKKPGASVKVSCKASGYTFTSSWMHWAKQAPGQGLEWIGEIHPNSAKTNYNQKFQGRVTMTRDTSISTAYMELSRLRSDDTAVYYCARVDYGKPWFAYWGQGTLVTVSS
light: DVVMTQTPPSLPVNPGEPASISCRSSQSLVHSNGYTYLHWYLQKPGQSPQLLIYKVSNHLSGVPDRFSGSGSGTDFTLKISWVEAEDVGVYFCSQSTHVPYTFGGGTKLEIKRTVAAPSVFIFPPSDEQLKSGTASVVCLLNNFYPREAKVQWKVDNALQSGNSQESVTEQDSKDSTYSLSSTLTLSKADYEKHKVYACEVTHQGLSSPVTKSFNRGEC
notes: also called 70005; not shown: heavy constant region CH1-CH2-CH3
A word on the Kd: it is the concentration at which binding is half-saturated. Broadly, the koff is a measure of how fast the partners let go of each other. In general, kon refers to the rate constant with which the complex forms. By EC50 is commonly meant the concentration that produces a half-maximal response. In the case of B1, the Kd in assay [1] worked out at 0.0061 nM; in [2] it was 0.35 nM. Besides, the koff in assay [1] came to 4.13e-05 s⁻¹; in [2], 7.2e-05 s⁻¹. In addition, the kon in assay [1] was 6.77e+06 M⁻¹ s⁻¹; in assay [2], 205000 M⁻¹ s⁻¹. Further, in assay [3], the “EC50 of inhibition of IL-6 content, NCI/ADR-RES cells stimulated with IL-36β” value was found to be 0.45 nM. Further, the EC50 was determined as 0.747 nM in assay [4] and 0.18 nM in [5].

B2: humanized anti-IL-36R antibody 900527 (antibody, V domains shown)
VH: QVQLVQSGAEVKKPGASVKVSCKASGYTFTSSWMHWAKQAPGQGLEWIGEIHPNSAKTNYNQKFQGRVTMTRDTSISTAYMELSRLRSDDTAVYYCARVDYGKPWFAYWGQGTLVTVSS
VL: QIVLTQSPGTLSLSPGERATLSCRASSSVSSSYLHWYQQKPGQAPRLWIYSTSSRATGIPDRFSGSGSGTDFTLTISRLEPEDFATYYCQQFQSSPLTFGQGTKLEIK
notes: IgG1 (vector with L234A, L235A) and human kappa
Take B2: in assay [2], the Kd was 0.141 nM, the koff is 0.00015 s⁻¹ and the kon was found to be 1.07e+06 M⁻¹ s⁻¹. The “EC50 of inhibition of IL-6 content, NCI/ADR-RES cells stimulated with IL-36β” value in assay [3] is 0.069 nM. A half-maximal response in [6] (EC50) required 0.062 µg/mL. Further, the EC50 in [7] turned out to be 0.0595 µg/mL. For the same molecule, the “HuIL-6 detected in NCI/ADR-RES under IL-36β stimulation IC50” value in [8] amounted to 0.00887 µg/mL. In addition, the “pNFκB detected in HIF under IL-36β stimulation IC50” value in assay [9] is 0.105 µg/mL. In assay [10], this molecule yielded a Kd of 0.0452 nM, a koff of 4.37e-05 s⁻¹ and a kon of 967000 M⁻¹ s⁻¹. Besides, in assay [4], a half-maximal response (EC50) required 0.32 nM. Besides, the “HuIL-6 detected in HIF under IL-36β stimulation IC50” value in [11] stood at 0.0546 µg/mL. Moreover, the “HuIL-6 detected in HIF under IL-36α stimulation IC50” value in [12] was 0.0479 µg/mL. Besides, in [13], the “IC50 of GM-CSF release, NCI/ADR-RES cells stimulated with IL-36α” value is 0.022 µg/mL; the “IC50 of GM-CSF release, NCI/ADR-RES cells stimulated with IL-36β” value stood at 0.0174 µg/mL; the “IC50 of GM-CSF release, NCI/ADR-RES cells stimulated with IL-36γ” value was 0.0198 µg/mL; the “IC50 of IL-6 release, NCI/ADR-RES cells stimulated with IL-36α” value turned out to be 0.015 µg/mL. Moreover, in assay [13], the “IC50 of IL-6 release, NCI/ADR-RES cells stimulated with IL-36β” value was found to be 0.0139 µg/mL; the “IC50 of IL-6 release, NCI/ADR-RES cells stimulated with IL-36γ” value turned out to be 0.0162 µg/mL; the “IC50 of IL-8 release, NCI/ADR-RES cells stimulated with IL-36α” value was 0.0315 µg/mL; the “IC50 of IL-8 release, NCI/ADR-RES cells stimulated with IL-36β” value turned out to be 0.0223 µg/mL. In assay [13], the “IC50 of IL-8 release, NCI/ADR-RES cells stimulated with IL-36γ” value worked out at 0.0198 µg/mL and the “IC50 of pNF-κB, NCI/ADR-RES cells stimulated with IL-36β” value was 71.4 ng/mL.

These data come from patent EP4289863A9 (Shanghai Huaota Biopharmaceutical Co., Ltd., dated 2024).
